Substitutions are numbered along the chain they refer to. Names and notes keep the numbering of the source.
B1: Escherichia coli multidrug transporter MdtF, wild type (MdtF-6xHis) in SMA lipid particles (natural protein)
chain: MANYFIDRPVFAWVLAIIMMLAGGLAIMNLPVAQYPQIAPPTITVSATYPGADAQTVEDSVTQVIEQNMNGLDGLMYMSSTSDAAGNASITLTFETGTSPDIAQVQVQNKLQLAMPSLPEAVQQQGISVDKSSSNILMVAAFISDNGSLNQYDIADYVASNIKDPLSRTAGVGSVQLFGSEYAMRIWLDPQKLNKYNLVPSDVISQIKVQNNQISGGQLGGMPQAADQQLNASIIVQTRLQTPEEFGKILLKVQQDGSQVLLRDVARVELGAEDYSTVARYNGKPAAGIAIKLAAGANALDTSRAVKEELNRLSAYFPASLKTVYPYDTTPFIEISIQEVFKTLVEAIILVFLVMYLFLQNFRATIIPTIAVPVVILGTFAILSAVGFTINTLTMFGMVLAIGLLVDDAIVVVENVERVIAEDKLPPKEATHKSMGQIQRALVGIAVVLSAVFMPMAFMSGATGEIYRQFSITLISSMLLSVFVAMSLTPALCATILKAAPEGGHKPNALFARFNTLFEKSTQHYTDSTRSLLRCTGRYMVVYLLICAGMAVLFLRTPTSFLPEEDQGVFMTTAQLPSGATMVNTTKVLQQVTDYYLTKEKDNVQSVFTVGGFGFSGQGQNNGLAFISLKPWSERVGEENSVTAIIQRAMIALSSINKAVVFPFNLPAVAELGTASGFDMELLDNGNLGHEKLTQARNELLSLAAQSPNQVTGVRPNGLEDTPMFKVNVNAAKAEAMGVALSDINQTISTAFGSSYVNDFLNQGRVKKVYVQAGTPFRMLPDNINQWYVRNASGTMAPLSAYSSTEWTYGSPRLERYNGIPSMEILGEAAAGKSTGDAMKFMADLVAKLPAGVGYSWTGLSYQEALSSNQAPALYAISLVVVFLALAALYESWSIPFSVMLVVPLGVVGALLATDLRGLSNDVYFQVGLLTTIGLSAKNAILIVEFAVEMMQKEGKTPIEAIIEAARMRLRPILMTSLAFILGVLPLVISHGAGSGAQNAVGTGVMGGMFAATVLAIYFVPVFFVVVEHLFARFKKA
notes: also called MdtF^WT; apo-MdtF^WT; source: E. coli C43(DE3) ΔacrAB, extracted in SMALPs, purified (Ni-NTA, SEC)
B2: Escherichia coli multidrug transporter MdtF, single-point mutant V610F (MdtF-6xHis) in SMA lipid particles (natural protein)
chain: B1 chain with V610F
notes: also called MdtF^V610F; apo-MdtF^V610F; source: E. coli C43(DE3) ΔacrAB, extracted in SMALPs, purified (Ni-NTA, SEC)

Target: the molecule itself
Experiment: cryo-EM structure

Protein	stoichiometry N	binding result
B1	3	
B2		binds

From paper doi:10.1101/2025.04.04.646765, “Molecular basis for multidrug efflux by an anaerobic RND transporter” (bioRxiv, 2025)
